{"source": "patent US20230218743A1", "binders": {"B1": {"name": "N-612-004 (antibody, V domains shown)", "VH": "EVQLVESGGGLVQPGGSLRLSCAASGFTFSSYYMHWVRQAPGKGLEWVSAISGSGGYTYYADSVKGRFTISRDNSKNTLYLQMNSLRAEDTAVYYCARDRDHAYDWGFDVWGQGTLVTVSS", "VL": "DIQMTQSPSSLSASVGDRVTITCQASQDISNYLNWYQQKPGKAPKLLIYDASNLETGVPSRFSGSGSGTDFTFTISSLQPEDIATYYCQQWADWPLTFGQGTKVEIK"}}, "key": {"[1]": {"target": "RBD-SD1 (SARS-CoV-2), P0DTC2", "details": "remark: other sources report otherwise"}, "[2]": {"target": "RBD-SD1 (SARS-CoV-2), P0DTC2", "experiment": "epitope analysis, FIG. 3B; exponent as printed", "details": "remark: other sources report otherwise"}}, "note": "Read-outs that look alike come from different tables or passages of the source."}
{"binder": "B1", "values": [{"measurement": "Kd", "setting": "[1]", "value": 2.95, "unit": "nM"}, {"measurement": "koff", "setting": "[1]", "value": 0.000937, "unit": "s⁻¹"}, {"measurement": "kon", "setting": "[1]", "value": 317000, "unit": "M⁻¹ s⁻¹"}, {"measurement": "koff", "setting": "[2]", "value": 0.00034, "unit": "s⁻¹"}]}
